Laboratory results reported in patent US20080279864A1.

Molecular target: N-type (CaV2.2) Ca2+ channel (α1B with β2a and α2δ) in HEK293 cells (human; rat), Q00975
Assay: cell-based or functional assay

Chain of N-type (CaV2.2) Ca2+ channel (α1B with β2a and α2δ) in HEK293 cells (human; rat), Q00975 (P54290 25-1091, stated change not applied, chain 3 of 2, other chains not shown): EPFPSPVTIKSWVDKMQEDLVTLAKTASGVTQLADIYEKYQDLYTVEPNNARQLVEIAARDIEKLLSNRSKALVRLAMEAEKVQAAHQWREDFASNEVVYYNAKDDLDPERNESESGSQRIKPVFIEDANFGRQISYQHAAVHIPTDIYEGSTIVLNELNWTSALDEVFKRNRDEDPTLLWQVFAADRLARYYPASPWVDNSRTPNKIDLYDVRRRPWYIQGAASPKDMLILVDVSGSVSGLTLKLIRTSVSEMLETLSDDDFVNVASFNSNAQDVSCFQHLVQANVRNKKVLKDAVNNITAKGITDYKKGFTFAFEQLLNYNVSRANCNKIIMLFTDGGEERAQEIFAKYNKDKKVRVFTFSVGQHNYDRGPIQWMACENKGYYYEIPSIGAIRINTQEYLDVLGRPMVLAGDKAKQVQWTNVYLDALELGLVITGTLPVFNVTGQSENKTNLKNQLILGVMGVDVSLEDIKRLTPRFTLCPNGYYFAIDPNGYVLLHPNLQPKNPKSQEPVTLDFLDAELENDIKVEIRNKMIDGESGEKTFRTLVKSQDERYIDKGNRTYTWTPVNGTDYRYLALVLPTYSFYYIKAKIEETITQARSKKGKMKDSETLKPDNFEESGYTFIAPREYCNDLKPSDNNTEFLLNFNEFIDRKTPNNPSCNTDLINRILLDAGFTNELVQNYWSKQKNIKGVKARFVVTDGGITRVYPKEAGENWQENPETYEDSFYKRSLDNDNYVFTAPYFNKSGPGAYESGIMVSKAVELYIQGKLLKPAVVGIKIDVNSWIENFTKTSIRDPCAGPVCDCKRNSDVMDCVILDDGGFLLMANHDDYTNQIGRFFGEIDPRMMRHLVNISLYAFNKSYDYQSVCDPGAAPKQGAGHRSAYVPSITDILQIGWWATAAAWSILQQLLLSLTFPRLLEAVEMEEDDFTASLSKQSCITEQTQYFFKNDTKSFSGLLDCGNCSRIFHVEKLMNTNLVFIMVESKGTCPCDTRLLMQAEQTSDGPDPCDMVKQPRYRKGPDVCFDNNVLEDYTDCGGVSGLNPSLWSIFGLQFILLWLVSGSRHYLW

DF, degree of prepulse facilitation, free NTB with Gβγ: 4
conversion to constitutively reluctant channels, free NTB with Gβγ: 75%
B1: free NTB peptide (residues 1-95, without CFP fusion) (peptide)
peptide: MVRFGDELGGRYGGPGGGERARGGGAGGAGGPGPGGLQPGQRVLYKQSIAQRARTMALYNPIPVKQNCFTVNRSLFVFSEDNVVRKYAKRITEWP
